For the assay, the target named is alkyl hydroperoxide reductase subunit C (peroxiredoxin) from Amphibacillus xylanus (Amphibacillus xylanus) (UniProt K0J4Q8). Description: SPR. Background: In SPR one partner is held on a chip, and binding of the other changes the refractive index at the surface.

In paper PMC4338369 one finds kon data, which are given here for one substance.

What is called kon is the rate constant with which the complex forms. The substance “NADH oxidase from Amphibacillus xylanus (enzyme)” gave a kon of 29 M⁻¹ s⁻¹.
